Test results as given in doi:10.1101/2024.02.20.581179.
Each block holds one substance with its values, some of them ahead of it.

Legend:
Assay in all cases: SEC
[1] = target: GST-tagged A. carterae eIF4E-1d1 (not stated | Amphidinium carterae)
[2] = target: GST-tagged A. carterae eIF4E-2a (not stated | Amphidinium carterae)
[3] = target: GST-tagged A. carterae eIF4E-1a (not stated | Amphidinium carterae)
[4] = target: GST-tagged mouse eIF4E-1 (not stated | mouse)

- stoichiometry N [1]: 2
Substance: GST-tagged A. carterae eIF4E-1d1

- stoichiometry N [2]: 2
Substance: GST-tagged A. carterae eIF4E-2a

- stoichiometry N [3]: 2
Substance: GST-tagged A. carterae eIF4E-1a

- stoichiometry N [4]: 2
Substance: GST-tagged mouse eIF4E-1
